Assay [1] addresses T1, CCR-3 receptor (Homo sapiens, UniProt P51677, Y235E).
T1 construct: expressed in transfected cells; host or cells: HEK293 (inferred: assay 'as described above for the serotonin 2A receptor')
T1 sequence (P51677 1-355 Y235E): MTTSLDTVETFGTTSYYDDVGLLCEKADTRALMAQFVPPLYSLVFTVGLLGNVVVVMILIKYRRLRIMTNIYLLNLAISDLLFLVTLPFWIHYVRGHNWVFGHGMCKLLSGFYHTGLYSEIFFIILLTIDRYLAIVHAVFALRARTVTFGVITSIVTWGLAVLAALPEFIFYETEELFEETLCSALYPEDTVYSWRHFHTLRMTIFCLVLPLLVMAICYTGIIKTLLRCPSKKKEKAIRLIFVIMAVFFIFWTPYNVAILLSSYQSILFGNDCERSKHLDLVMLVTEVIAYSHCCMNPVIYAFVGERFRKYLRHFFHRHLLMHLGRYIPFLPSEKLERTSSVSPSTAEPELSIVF
The assay can be described thus: SRE-Luc + Gq5i luciferase reporter assay, wild-type or mutant CCR-3 receptor. In kind it is cell-based. Conditions: basal activity of mutant vs wild-type. From the text: (§1) Alternatively, Gαi coupling can also be measured using a positive assay (i.e., one that yields an increase in activity upon receptor activation), instead of a negative assay (i.e., one that yields a decrease in activity upon receptor activation). This assay provides a more detectable output signal and less interassay variation. In one such assay, a chimeric G protein (Gq5i, Broach and Thomer, Nature 384 (Suppl.):14-16 (1996)) that contains the entire Gαq protein having the five C-terminal amino acids from Gαi attached to the C-terminus of Gαq is used. This chimeric G protein is recognized as Gαi by Gαi coupled receptors, but switches the receptor induced signaling from Gαi to Gαq. This allows Gαi receptor coupling to be detected using a positive assay by use of a Gαq responsive SMS-Luc or SRE-Luc construct (Stratagene, La Jolla, Calif.). SMS and SRE preferably respond to Gαq mediated inositol and calcium production. Moreover, detection can be carried out in the absence of forskolin pre-stimulation of cells.
(§2) The basal activity of the Tyr235Glu mutant CCR-3 receptor was assessed using a luciferase assay. The CCR-3 receptor is a Gαi coupled receptor. Therefore, we chose to use the SRE-Luc+Gq5i reporter system, described in detail above (Broach and Thorner, supra), which switches the signaling pathway from Gαi to Gαq for reliable positive readout. The luciferase assay was carried out as described above for the serotonin 2A receptor.
A general note: A reporter such as luciferase makes a cellular process visible.

Assay [2] has as its system CCR-3 receptor. The assay is described as above. In kind it is cell-based, human. Conditions: luciferase activity; for Ligand-stimulated Activity / Basal Activity: average of 5 experiments; for Basal Activity: no ligand.
Description: as §1, §2

Changes are numbered by the printed parent chain.

B1: Lys323Glu CCR-3: silenced mutant CCR-3 receptor with Tyr to Glu substitution at position 235 of SEQ ID NO: 2 (protein, UniProt P51677 1-355, looked up, variant Y235E)
C-C chemokine receptor type 3: T1 sequence (P51677 1-355 Y235E)
Regarding B1, in assay [1], the “basal activity compared to wild-type receptor (in words)” value is recorded as “decrease in basal activity”. Also, in assay [2], the “Stimulated/Basal Ratio” value turned out to be 12, the “Ligand-stimulated Activity” value was 151,445 and the “Basal Activity” value was 12,626.

B2: wild-type CCR-3: wild-type CC chemokine receptor 3 (CCR-3), G protein-coupled receptor, SEQ ID NO: 2 (protein, UniProt P51677 1-355, looked up)
C-C chemokine receptor type 3: T1 sequence (P51677 1-355 Y235E) with E235Y
Take B2: in assay [2], the “Stimulated/Basal Ratio” value was found to be 4.7, the “Ligand-stimulated Activity” value is given as 157,389 and the “Basal Activity” value is recorded as 33,177.

Values taken from patent US20040214992A1, “Mutation induced optimization of receptor signal to noise ratio” (priority 2001, published 2004).
